Measurements from publication PMC5120349, “Reconstitution of Targeted Deadenylation by the Ccr4-Not Complex and the YTH Domain Protein Mmi1”.

B1: Mmi1 (recombinant, S. pombe) (natural protein)
chain: MSNTNFSTSRSSKSIPELPNLEALRSLWPPPSLNESGDTRSVWTTHTGEPVASSVLSTSGSNNFSSPLKRPAPESHDAPIGRRLMVDDPRLIKHGKYDFSRHCTDYGHSYEWPYFRSLRRESMLYHTSGSYPESQPPYSSYSTDAPHYYHAGSESSAYYDSRSRLHGIQPPPKRRTLSPPPRRLADPVVVGSSRYVEEEVYRRPPYTLASEVPSSASAYQAGYSSYPVRSSPQLSHEDTRHGIASSGSTRYPFVPANTRASHSPSLLEPYAHSLPSSVAPVGAYPEKSSYLLSNSSNDSASRKEKPKARASTPPPLNFSRASEHRNEKGERISMINPRVVLDENGISHRSRYFIMLCDNETAIAHAKKTSIWAVKKDSSKRISDAYKKASVYFIFVAQQTYNALGYAQVVSDLNSTELPFWSDSSHAGGVRIKWIKTCNLFSAEISEIVSHMDHGSEARDGMEMMYDEGSRLCTLINYAIMKRIGRDR

molecular target: T1, Mmi1 YTH domain (Schizosaccharomyces pombe, UniProt O74958 282-488); assay: fluorescence polarization; 20 mM HEPES pH 7.5, 100 mM NaCl, 1 mM Mg(OAc)2, 0.1 mM TCEP, 10 nM labeled RNA, 10 min at room temperature; Hill-slope fit; conditions: protein: recombinant
T1 sequence: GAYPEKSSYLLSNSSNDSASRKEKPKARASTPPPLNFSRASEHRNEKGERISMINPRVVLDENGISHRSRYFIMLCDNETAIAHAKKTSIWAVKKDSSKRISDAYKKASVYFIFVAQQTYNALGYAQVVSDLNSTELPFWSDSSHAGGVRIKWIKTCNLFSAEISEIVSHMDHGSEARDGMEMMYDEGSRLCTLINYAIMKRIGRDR

Row | Binder | Kd [µM]
1 | CAGCUCCGCAUCCCUUUCCC (ssRNA) [20-mer unstructured RNA] | 13.9 ± 1.6

same assay, conditions: protein: recombinant; label: 3' 6-FAM

Row | Binder | Kd [µM]
2 | CUCUUUAAACCUAAAAAGC (ssRNA) [rec8 UUAAAC] | 0.226 ± 0.015
3 | CUCUUUCUCCCUACAAAGC (ssRNA) [rec8 UUCUCC] | 1.37 ± 0.14
4 | CUCUUGAAACCUAAAAAGC (ssRNA) [rec8 UGAAAC] | 0.216 ± 0.014
5 | CUCUUUAACCCUAAAAAGC (ssRNA) [rec8 UUAACC] | 0.311 ± 0.013
6 | CUCUUUAAAGCUAAAAAGC (ssRNA) [rec8 UUAAAG] | 0.231 ± 0.007
7 | CUCUUUACACCUAAAAAGC (ssRNA) [rec8 UUACAC] | 0.46 ± 0.025
8 | CUCUUUCAACCUAAAAAGC (ssRNA) [rec8 UUCAAC] | 0.433 ± 0.033

molecular target: recombinant S. pombe Ccr4-Not complex (seven core subunits) (S. pombe) (UniProt O74856); assay: not given; conditions: not given
Sequence (O74856 whole entry, looked up, tested part not stated, one chain of several): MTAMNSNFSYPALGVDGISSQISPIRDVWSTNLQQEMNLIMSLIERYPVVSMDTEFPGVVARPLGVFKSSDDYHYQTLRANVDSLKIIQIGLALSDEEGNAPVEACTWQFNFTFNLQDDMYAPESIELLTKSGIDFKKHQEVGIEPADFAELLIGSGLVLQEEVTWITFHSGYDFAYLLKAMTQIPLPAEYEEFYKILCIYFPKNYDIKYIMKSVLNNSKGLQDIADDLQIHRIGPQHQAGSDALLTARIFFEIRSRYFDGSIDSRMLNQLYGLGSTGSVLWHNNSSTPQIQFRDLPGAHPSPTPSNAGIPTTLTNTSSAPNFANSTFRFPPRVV

Row | Binder | rate of deadenylation of the rec8^UUAAAC-A30 target RNA by Ccr4-Not with bound Mmi1, against Ccr4-Not without Mmi1 [fold]
9 | B1 | 5
